The MegaScale stability set (Tsuboyama et al. 2023)

B1: HEEH_KT_rd6_3546 (parent)
chain: SEEDKEREHWERLNRDFELRVLDTTFIAHHAEEVIKLLRWLEK
B2: EEHEE_rd4_0469 (parent)
chain: ITIHVNGVTYHFDNPEEAEKFAQKMAKTYQLKMEIHNGEFHME

Variants of: B1
Assay: folding stability dG (cDNA display proteolysis); higher = more stable
Settings: PBS, room temperature

Folding stability dG [kcal/mol], by site and new letter:
E33: I 2.31; F 2.31; R 1.46; S 1.44; A 1.74; N 1.45; M 2.06; P 0.926; D 1.34; K 1.62; L 2.05; C 2.69; V 2.06; Y 2.16; Q 1.46; W 2.45; T 1.47; H 1.41; G 1.47
I35: A 1.03; L 1.47; R 1.12; W 1.59; Y 1.33; S 0.508; G 0.628; K 0.927; F 1.49; C 1.88; E 0.843; H 0.843; V 1.17; T 0.787; P -0.407; N 0.739; Q 0.925; M 1.33; D 0.67
L38: F 1.39; P -0.432; C 1.78; Y 0.971; N 0.045; K 0.405; G -0.072; S 0.079; I 1.09; V 0.9; T 0.188; W 1.61; Q 0.257; E -0.1; A 0.316; R 0.8; D -0.361; M 0.931; H 0.371
L37: T 0.61; Q 0.133; A 0.846; M 1.09; S 0.285; V 0.922; G 0.136; D -0.437; N 0.031; P -0.172; E -0.07; H 0.36; W 1.63; K 0.138; I 1.23; F 1.62; R 0.273; Y 1.23
R39: I 1.77; L 1.59; K 1.28; F 1.7; H 1.17; S 1.01; E 0.969; P 0.359; W 1.55; N 0.829; M 1.21; T 1.37; Q 0.982; V 1.33; G 0.742; D 0.762; Y 1.54; A 0.866
L41: Q 0.519; F 1.38; T 0.442; M 1.22; N -0.295; P 0.119; D -0.253; A 0.58; C 1.83; I 1.14; R 0.586; K 0.491; V 1.21; W 1.22; G 0.088; S -0.005; H 0.356; E -0.48; Y 0.761
E42: I 2.41; Q 1.67; V 2.26; P 0.291; H 1.63; N 1.56; W 2.59; D 1.07; A 1.82; T 2.1; S 1.84; M 2.4; G 1.7; Y 2.57; K 1.69; F 2.75; R 1.85; L 2.42
K36: Y 1.82; N 1.28; V 1.87; A 1.56; C 2.09; M 1.93; S 1.23; W 1.87; F 2.13; E 0.928; G 1.14; P 0.419; H 1.24; I 2.02; D 1; L 1.92; Q 1.23; T 1.28; R 1.51
K43: S 1.2; L 1.36; I 1.38; M 1.5; W 2.03; E 1.3; R 1.65; Y 1.8; V 1.56; H 1.17; T 1.22; P 0.967; C 1.57; N 1.3; F 1.57; D 1.45; G 1.82; Q 1.36; A 1.27
E32: W 2.1; L 1.92; Q 1.29; V 1.79; Y 1.9; N 1.26; T 1.43; H 1.42; P 1.25; I 1.73; S 1.42; M 1.72; R 1.37; K 1.54
V34: S 0.133; K 0.1; H 0.255; C 1.54; F 1.61; I 1.75; L 1.57; A 1.06; W 1.47; N -0.04; Y 1.06; D 0.006; R 0.162; G 0.3; E 0.228; M 1.2; Q -0.202; T 0.62
W40: S 0.639; M 1.11; A 0.156; G 0.388; Y 1.13; E 0.585; F 1.1; P -0.109; D 0.502; L 1.01; K 0.6; C 1.55; V 0.885; Q 0.781; I 1.31; N 0.617; H 0.768; T 0.373; R 0.934

Variants of: B2
Assay: as above
Settings: PBS, room temperature

Folding stability dG [kcal/mol]: each site, then its substitutions
G7: A 0.95; D 0.859
I1: K 0.846; M 0.992; S 0.683; G 0.443; F 1.08; E 0.225; T 0.826; R 1.01; H 0.725; D 0.302; L 0.959; P 0.64; C 1.65; W 1.32; A 0.749; Y 1.16; V 1.02; Q 0.734; N 0.57
V5: F 1.24; D 0.38; G 0.398; S 0.42; I 1.14; W 1.2; T 0.534; M 0.927; A 0.938; Y 0.92; H 0.711; Q 0.252; R 0.306; C 1.77; E 0.203; P -0.199; L 0.899; N 0.312; K 0.112
H4: N 0.813; I 0.994; K 0.918; C 1.77; R 1.08; P 0.265; S 0.684; G 0.633; T 0.943; M 0.82; V 0.899; Q 0.774; D 0.586; F 1.08; A 0.76; W 1.35; L 0.939; Y 1.29; E 0.692
N6: P 0.4; V 1.42; Y 1.73; W 1.88; T 1; Q 1.26; F 2.18; D 1.11; R 1.27; H 1.35; K 1.37; G 1.14; S 1.07; M 1.73; E 1.2; I 1.51; A 1.3; L 1.79
I3: W 0.819; L 0.868; Y 0.837; R 0.201; P -0.854; H 0.159; A 0.525; F 0.925; E -0.263; N -0.377; T 0.127; G 0.58; K 0.19; M 0.706; C 1.55; V 1.35; D 0.068; S -0.094; Q -0.059
T2: M 1.01; P 0.663; Q 0.972; S 1.08; E 0.797; N 1.17; I 1.24; H 1.51; G 0.665; L 1.25; Y 1.36; C 1.72; W 1.47; D 1.13; R 1.46; V 1.13; F 1.42; A 0.989; K 1.31
